In the RNAGym collection of RNA variant scans (doi:10.1073/pnas.2313332121):
Variants at the floor of the assay were thinned out.

B1: TPR 5TU (parent)
chain: GGAUCUUCUCGAUCUAACAAAAAAGACAAAUCUGCCACAAAGCUUGAGAGCAUCUUCGGAUGCAGAGGCGGCAGCCUUCGGUGGCGCGAUAGCGCCAACGUUCUCAACUAUGACACGCAAAACGCGUGCUCCGUUGAAUGGAGUUUAUCAUG

Variants of: B1
Test: polymerase ribozyme fitness, log enrichment relative to wild type (log ratio); higher = more active; in vitro selection for triplet polymerase activity
In short: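 Input and output libraries were sequenced on Illumina after a single in vitro selection round, run in triplicate on PCR-built, transcribed mutant libraries of each subunit of a heterodimeric triplet polymerase ribozyme. Selection annealed libraries to a biotinylated primer, the partner subunit and triplets, incubated them frozen at −7 °C, then gel-excised extended constructs for streptavidin-bead capture and RT-PCR. Genotypes with ≥10 input reads and ≥1 read per output were kept. Fitness is the logarithm, taken in base 2, of genotype enrichment divided by wild-type enrichment, using inverse-variance-weighted replicate averages.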

Variant	polymerase ribozyme fitness (log ratio)
G94U A147U	0.0631
C10U G74C G88C A110G	≤ -4.2
U53C C69U C75A C93U A115C	≤ -4.2
C27U C36A C108G U139G U145C	-3.87
C14G C93A	-3.68
G42C G86C	≤ -4.2
C57A G59C U146C U148A C149U	-3.99
C18U U33A A39U A52C C72U G94A C95U C132U	≤ -4.2
A19G U109G U139C U144C U148C	-4.14
A24G U55G	-3.78
C76U G84C	-1.35
U139G A150C	-3.84
A52C C54U G68A C93U C103A A106G A110U	≤ -4.2
G67U G94C A119C U134G A147C	≤ -4.2
A47G A52G U56A C87G	≤ -4.2
C32G A37G G83U C87G A89G G133C	≤ -4.2
A21C A22U G86U U102C C116U A122G A138U	≤ -4.2
U33C U56C G59C C79A C95U C123A G140U	≤ -4.2
C85A U135A	-0.589
G25U G86A C105U	-3.5
U53A U148G	-4.01
A47G C51U C87U	-0.414
U6G U78G C93U A98G A142C	-3.99
A19U A49G C57A A60U C116U	-2.27

Variant	polymerase ribozyme fitness (log ratio)
U55A G88C G133U U145C	≤ -4.2
A24U U55G	0.467
A49C A52U G84A C105U G124U	≤ -4.2
C14G U56A C85G G92A	≤ -4.2
C18U A30U G65U G84U C105U	≤ -4.2
A60U A89C A142U	-2.09
C14A A28U G68U G92C C125U A137C A150C	≤ -4.2
U31A C57A C87U A97C G117A A119U	1.02
C95U A150G	-2.25
U6A C69G G84U U145C	-1.67
U44G A47C A66G G67A C87A C96G U145A	≤ -4.2
C5U G92A C114U	-3.86
U53G A97C	-1.81
C54A U61A G67A C75A G80U C96A	≤ -4.2
C38U G48A C87A	≤ -4.2
C5U U7C A21U G86A C131A	-4.16
U53A A73U	-2.21
C36A U56A	-3.62
A20C U31G U53A U55G A115C	-2.82
A40C U55A G88A C108G C118U U130A	≤ -4.2
C35A C43U C87A G128A	≤ -4.2
A29C C35U G50C G58U U61G C96A U134A	≤ -4.2
A21C A142C	0.655
U7G C75A G84A G94U A106U A120C	≤ -4.2

Variant	polymerase ribozyme fitness (log ratio)
A28G C32U G86C A115G U144G	≤ -4.2
C36U A142G	-2.16
C27U C43U C95U A119U G143C U144C	-4.15
A12G G25C A122G G136A	-3.16
A17U C114U	-1.91
G50A C76G C93G U102A U135G A150G	≤ -4.2
C35G G68A A91U U144C	≤ -4.2
A12G C35U U56C C57G G58U A60G	-0.194
A22G U55A A89C	-0.257
A24U A41C U45A G46C A49C G86A	-3.99
A73C A107G	≤ -4.2
A3U A30U G86U C87U	≤ -4.2
A39G C54G C57A	-3.22
C57U G58U	0.297
C5A G48C	-0.334
A29U G58C G84A C105U A113C	≤ -4.2
C32G C43U C54U A73G U77G	≤ -4.2
U53A A115G	-0.769
A23G G50C G84U C85G A150C	-3.98
C54U U55G C95A A119C U127G A142C	≤ -4.2
C57G G67U G92C A106C	≤ -4.2
C5G U13A A29G C51U G94C C114G G140C G141C U144A	≤ -4.2
A60U C132U	-0.719
G34U G58C C69U A91G G128A U135C	≤ -4.2

Variant	polymerase ribozyme fitness (log ratio)
C79G U148A	≤ -4.2
C54G U82A	-1.98
G50U G81C U134A	-2.19
C51U G84A	-0.489
C27U A28G U53G A73G C85U G86C A120U C132U	≤ -4.2
A60C A73G C93U	≤ -4.2
C10G A73U C76A C85G	≤ -4.2
A40U G84A	-0.341
A37G C93A U145G	-3.99
G67U U146C	-2.47
A17U G81A G84A	-0.321
C95A C96A C116U	-0.649
G88C A147C G152U	≤ -4.2
G70C C103G A120G U127C U134C	≤ -4.2
U55A U109G A137U	-4.19
A12G A41C A47C C72A C85U G133A A150U	≤ -4.2
C87U A107U	-3.34
C5A A40G C87U	-2.81
G62U G94U C96U	-3.88
A41G U78C C116G	0.0342
A24U A30G A64G C87G A122U C125U C149U	≤ -4.2
U77G G141A	-4.18
C10U A16C A39C G50U U56A G67C G94C C108U	≤ -4.2
A41G C54G G84A U148C	-3.53

Variant	polymerase ribozyme fitness (log ratio)
G25U U61A	-3.25
A26G	-2.11
U53G A113U	-3.16
U15A G74U C79G	≤ -4.2
U61A A64C G71A G86A A91C C93U C118G	≤ -4.2
U4G G84A U109A A115C C123A	-2.01
C79A G83A	-3.78
A20G A24G C51U C85U A120U C149G	≤ -4.2
A37C C93A	-2.8
A26G C95U C96U	-4.16
C8U G58C	-2.7
U4C C38U U55G C87A A106G	≤ -4.2
A47C U134G G136A	-0.632
G50A U56C	-1.2
G34U C54U A66C A91U A121U	-4.11
A24C A37G G48C C63U U78G G88C U144G	≤ -4.2
C54A A91U G100A G141C	≤ -4.2
G59C C63U C87U A107U	-3.81
A20U C51U U55G C57G A120C	-3.76
A28G U56A	-3.7
U13G C103A	-2.97
U61A A91U	≤ -4.2
C116U A142U	-0.344
A20U C54G C87U A115G C149U	≤ -4.2

Variant	polymerase ribozyme fitness (log ratio)
A24U C51A U56A G71U G88C U102C	≤ -4.2
G34A C57G G117A U144A	-3.39
C57A G62C C76U A91U C108U G140U U144G C149G	≤ -4.2
U15C A22C C85U U127C	-2
A52U U78C U102C	-2.88
U53A G58A G71A G126A U135G	≤ -4.2
U13C C125A G136C U145C U146C	-3.59
G59C G84A	-0.218
A23C C27U A30G C93G U101A U104G A107U	≤ -4.2
A20C C54U G86C U101C U104A	≤ -4.2
G11A U15G G46A A47G A60G G92C C96A	≤ -4.2
C63U C69A C85U A97C C118G G126C	-3.97
G92A U144C A147U	-3.46
A20U G42U U55G G62A	≤ -4.2
U45A G58A	-1.48
C18G U61A	-0.567
U61A C96G	-2.6
C57A C72U A150U	-0.157
A97G	-0.12
A66G C93A C95A C96U C116U	≤ -4.2
U44A U77A C95A G143A	≤ -4.2
C10U C27U U55A G59C G84A	≤ -4.2
C36U A41G G83C G84U C116U	-4.09
A40C G50A C95U U148C	≤ -4.2

Variant	polymerase ribozyme fitness (log ratio)
A22U U31G C54G C85U U146C	-0.611
A21U C38A U102A A120U A147C	-2.82
U31G G59A G92U	-0.919
C85U C105U A106C U135C G141A	-3.94
U55G A106C	-0.416
U56A G80U G84U U102G G124U	≤ -4.2
U15G C35G G50C C96G G143U	≤ -4.2
G11A C38A A40G	-4.14
C32U G65C U77A C87G U90C C114A U151A	≤ -4.2
A49U G50A G84A C95G U146C	-1.2
A73G G126U	-0.214
U53A G140C	-3.65
A29G C96A	-3.46
C5A A41C C54U C85A C103A G117A G133C A137U	≤ -4.2
A19G A49C C54A G68A C93A C95A C103U G124A	≤ -4.2
C85A C125U	-1.7
C5U C54U U82A C95G A147U	-1.27
C36A U78C G80U C149U	≤ -4.2
A24U C87A	≤ -4.2
A40C G83A A97G	-1.2
A3U A17U U56A G83U C93G C96G C125G G136C	≤ -4.2
A28U A30C C32A A47C G58C C85U A107U	≤ -4.2
A16U A52G A64U U77A C87A G143C	≤ -4.2
